Target: E2tag (tPA signal+E2(384-711)+tag; soluble E2/NS1 of HCV J1 clone with C-terminal E-tag) (hepatitis C virus (HCV J1 clone))
Assay: SPR, BIACORE X; E2tag amine-coupled to CM5 chip, scFv1-1 injected in HBS buffer

Kd: 2.2 nM
B1: single chain antibody scFv1-1 (scFv)
scFv: QVQLVQSGAEVKKPGSSVKVSCKASGGTYIDQPIGWVRQAPGQGLEWMGGIIPLSGPPHYAQKFQGKVSITADESTSTAYLELTSLTSEDTAVYYCARVLRGYCRRGSCYDWLDPWGQGTLVTVSSGGGGSGGGGSGGGGSALDIQMTQSPSSLSASVGDRVTITCQASQDISNYLNWYQQKPGKAPKLLLYATSRLYSGVPSRFSGSGSGTDFTLSISSLQPEDFATYYCQQTKSFPLTFGGGTKVEIKRAAAEQKLISEEDLGSRSTHHAHHHAA

From patent US20030157132A1
